Test results published in patent US20120207760A1 (THERACLONE SCIENCES, published 2012).

Assays:
[1] = biological target: T1, hemagglutinin (HA) of influenza A/Solomon Islands/3/06 H1N1 (Influenza A virus A/Solomon …); assay: ELISA, inactivated whole virions coated; transfection supernatant set 5
[2] = biological target: hemagglutinin (HA) of influenza A/Japan/305/57 H2N2 (Influenza A virus A/Japan/305/1957 …, UniProt P03451 16-562); assay: as above
[3] = biological target: T1, hemagglutinin (HA) of influenza …; assay: cell-based or functional assay

Binder	OD450 [1]	OD450 [2]	% Neutralization [3]
TCN-550 (5096_F06) (antibody, V domains shown) VH: QVQLQESGPGLVKPSETLSLTCTVSGASINSHYWSWIRQPPGKGLEWIGYVYYSGSTTYNPSLKSRVTLSVDTSKNQFSLNLSSVTAADTAFYYCARHPYDVLTGSGDWFDPWGQGTLVTVSS VL: SYVLTQAPSVSVAPGQTARITCGGNAIGSKKVHWYQHKAGQAPVLVVYDDTDRPSGIPERFSGSNSWSTATLTINRVEAGDEADYYCQVWDFTIDHVVFGGGTKLTVL	0.13 OD450	0.08 OD450	–
TCN-539 (5056_A08) (antibody, V domains shown) VH: QVQLVESGGGVVQPGRSLRLSCAASEITFITYAMHWVRQAPGKGLEWVALISDDGSNKFYADSVKGRFTISRDNSKNTLYLQMNSLRAEDTAAYYCAREGVYFDSGTYRGYFDYWGQETLVTVSS VL: EIVLTQSPATLSLSPGERATLSCRASQSVSSYLAWYQQKPGQAPRLLIYDASNRATGIPARFSGSGSGTDFTLTISSLEPEDFAVYYCQQRSHWPPITFGQGTRLEIK	0.07 OD450	0.07 OD450	97%
TCN-544 (5082_A19) (antibody, V domains shown) VH: QVQLQESGPGLVKPSETLSLTCTVSRGSIGHYFWSWIRQPPGKGLEWIGYISYSGSTKYNPSLRSRVTISVDTSKNQFSLNLNSVTATDTALYYCAREDYDILTGAGPGMEVWGQGTTVTVSS VL: QSMLTQPPSASGTPGQRVTISCSGSSSNIGSNTVNWFKHLPGTAPKLLIYRNDLRPSGVPDRFSGSKSGTSASLAISGLQSEDEADYYCATWDDSLNGFYVFGTGTKVTVL	0.07 OD450	0.07 OD450	95%
TCN-558 (5248_H10b) (antibody, V domains shown) VH: QVQLVQSGSEVKKPGTSVKVSCTASGSVFTNYGISWVRQAPGQGLEWMGGIIPLFGAAKYAQKFQGRVTITADESTKTVYMELSRLTSKDTAIYFCAKAPRVYEYYFDQWGQGTPVTVSS VL: EIVMTQFPATLSVSPGERVTLSCRASQSVSNNLAWYQQKPGQPPRLLIYDASTRATGVPAKFSGTGSGTEFTLSISSLQSEDFAVYYCQQYHNWPPSYSFGLGTKLEIK	3.52 OD450	3.31 OD450	–
TCN-551 (5243_D01) (antibody, V domains shown) VH: EVQLVQSGSEVKKPGESLKISCKGSGYSFSNYWIGWVRHMPGKGLEWMGIIYPGDSDTRYSPSFQGQVTMSADKSSSTVYLQWSSLKASDTAIYYCARRGGHSFGYGSGGDTHSEFDSWGQGTLVTVSS VL: QSVLTQSPSVSAAPGQKVTISCSGSDSNIGDYFVCWYQHLPGKPPQLLIYENNKRPSGIPDRFSGSKSGTSATLGITGIQTGDEADYYCATWDGSLSAWVFGGGTKLTVL	3.65 OD450	–	100%
TCN-549 (5092_P04) (antibody, V domains shown) VH: QVQLVQSGAEVKKPGASVKVSCKASGYTFTGYYMHWVRQAPGQGLEWMGWINPNSGDTNYAQKFQGRVTMTRDTSITTAYMELSSLRSDDTAVYYCARDSPYSSSWSFFDYWGQGPLVTVSS VL: not shown	0.09 OD450	0.08 OD450	–
TCN-556 (5089_K12) (antibody, V domains shown) VH: QVQLVQSGAEVKKPGASVKVSCKASGYTFIGYDMHWVRQAPGQGLEWMGWINAKRGGTNYAQKFQGRVTMTRDTSISTAYMELNSLRSDDTAVYYCARGVGSRTTIFGVLNPEFDYWGQGTLVTVSS VL: QSALTQPPSASGSPGQSVTISCTGSSSDVGGYDYVSWYQQHPGKAPKLLIYEVTKRPSGVPDRFSGSKSGNTASLTVSGLQAEDEADYYCSSYAGNYNHVFGPGTKVTVL	3.64 OD450	3.64 OD450	–
TCN-543 (5081_G23) (antibody, V domains shown) VH: QVHLVQSGAEVRKPGDSVKVSCKTSGYTFSTYPVAWVRQVPGQGLEWMGWISTYNGNTNFAQNFQGRVTLTTDTTTNTAYMEVRSLKFDDTAVYYCARVEGSYRDFWNNQNRFDPWGQGTLVTVSS VL: SYVLTQPPSVSVAPGQTARISCGGSNIGGKSVHWYQQKPGQAPVLVVYDDSGRPSGIPERFSGSNSGDTATLTISRVEAGDEADYFCQVWDNFGGVFGTGTKVTVL	3.63 OD450	3.64 OD450	100%
TCN-537 (3194_D21) (antibody, V domains shown) VH: QVQLQQWGSGLLKPSETLSLTCAVYGGSFRDDYWTWIRQPPGKGLEWIGEINHSGRTNYNPSLKSRVTISVDTSLKQFSLKVISVTAADTAVYYCARGTSHVSRYFDWLPPTNWFDPWGQGTQVTVSS VL: DIVLTQSPGTLSLSPGERATLSCRASQSVSSSYLAWYQQKPGQAPRLVMYGAATRATGIPDRFSGSGSGPDFTLTISRLEPEDFAMYYCQQYGNSPITFGQGTRLEIK	3.56 OD450	3.48 OD450	89%
TCN-540 (5060_F05) (antibody, V domains shown) VH: QVQLVQSGGGVVQPGRSLRLSCAASGFTFSSYAMHWVRQAPGKGLEWVAIISYDGNDQYYTDSVKGRFTISRDSSKVYLQMHRLRPEDTAVYYCAKEFETSGYFHGSFDYWGQGILVTVSS VL: QSALTQPASVSGSPGQSITISCTGTSSDVGGYNYVSWYQQHPGKAPKLLIYEVTNWPSGVSNRFSGSKSGNTASLTISGLQAEDEADYYCSSYAGSSTWVFGGGTRVTVL	0.09 OD450	3.61 OD450	100%
TCN-547 (5092_F11) (antibody, V domains shown) VH: QVQLQESGPGLVKPSQTLSLTCTVSGDSISSVDHYWSWIRQHPVKGLEWIGFMYYSASTYYNPSLKSRVTISTDTSKNQFSLRLSSVTAADTAVYYCARGTCAGDCSLHYYYYGLDVWGQGRTVTVSS VL: DIQMTQSPSSLSASVGDRVTITCRASQSISSYLNWYQHKPGKAPKVLMYAVSILQSGVPSRFSGSGSGADFTLTISSLQPEDFATYYCQQSYSSPLTFGGGTKVEIK	0.09 OD450	0.09 OD450	–
TCN-538 (3206_O17) (antibody, V domains shown) VH: QITLKESGPTLVKPTQTLTLTCVFSGFSLSITGVRVGWIRQPPGKALEWLALISWDDEKHYSPSLQSRLTITKDTSKNQVVLTMTNLDPVDTATYYCARSTDRGHVLRYFGWMLPGDAFDVWGQGTMVTVSS VL: DIVMTQSPDFLPVSLGERATINCKSSQRVLYSSNNKNYLAWYQLKPGQPPKLIIYWASTRESGVPDRFSGSGSGTEFTLTISSLQAEDVAVYYCQQYYSRPYTFGQGTKLEIK	3.59 OD450	3.37 OD450	35%
TCN-557 (5081_A04) (antibody, V domains shown) VH: QVQLVQSGAEVKKPGASVKVSCKASGHTFTGYYIHWVRQAPGQGLEWMGWINPDSGATSSAQNFQGRVTMTGDTSSSTAYMELSRLSFDDTAVYYCARVLFTSPFDFWGEGTLVTVSS VL: QAVVTQEPSLAVSPGGTVTLTCGSSTGAVTRGHYPYWFQQKPGQAPRALIYDSAGNRHSWTPARFSGSLLGGKAALTLSGAQPEDEAEYYCLLSYSGVWVFGGGTKLTVL	3.58 OD450	3.59 OD450	–
TCN-548 (5092_P01) (antibody, V domains shown) VH: QVQLQESGPGLVKPSETLSLTCTVSSGPMSDYYWSWIRQPPGKGLEWIGHVSVSHGGRTKSNPSVMSRVTISVETSKNQFSLKLTSVTAADTAVYYCARLNYYDRSGYHSPDGPSNNWFDPWGQGTLVTVSS VL: not shown	0.13 OD450	0.09 OD450	–
TCN-542 (5079_A16) (antibody, V domains shown) VH: QVQLQESGPGLVKPSQTLSLTCTVSGGSISSGNYYWNWVRQHPGKGLEWIGYIYYRGSTFYNPSLKSRVTISIDTSKNQFSLRLSSVTAADTAVYYCAKDTRSSLDNYQYGMDVWGQGTTVTVSS VL: QTVVTQEPSLTVSPGGTVTLTCASSTGAVTSSYFPNWFQQKPGQAPRPLIYSTTIRHSWTPARFSGSLLGGKAALTLSGVQPEDEADYYCLLYSGGDPVAFGGGTKLTVL	3.6 OD450	0.07 OD450	98%
